Laboratory results: US20100016697

Assays:
[1] = tested on: LTBP-1 fluorogenic peptide SCJJ-1
[2] = tested on: MT1-MMP specific fluorogenic substrate MCA-Pro-Leu-Ala-Cys(p-OmeBz)-Trp-Ala-Arg(Dpa)-NH2

MMP-9 (part of MMP-2/9, Chemicon), sequence (chain, as listed by the source): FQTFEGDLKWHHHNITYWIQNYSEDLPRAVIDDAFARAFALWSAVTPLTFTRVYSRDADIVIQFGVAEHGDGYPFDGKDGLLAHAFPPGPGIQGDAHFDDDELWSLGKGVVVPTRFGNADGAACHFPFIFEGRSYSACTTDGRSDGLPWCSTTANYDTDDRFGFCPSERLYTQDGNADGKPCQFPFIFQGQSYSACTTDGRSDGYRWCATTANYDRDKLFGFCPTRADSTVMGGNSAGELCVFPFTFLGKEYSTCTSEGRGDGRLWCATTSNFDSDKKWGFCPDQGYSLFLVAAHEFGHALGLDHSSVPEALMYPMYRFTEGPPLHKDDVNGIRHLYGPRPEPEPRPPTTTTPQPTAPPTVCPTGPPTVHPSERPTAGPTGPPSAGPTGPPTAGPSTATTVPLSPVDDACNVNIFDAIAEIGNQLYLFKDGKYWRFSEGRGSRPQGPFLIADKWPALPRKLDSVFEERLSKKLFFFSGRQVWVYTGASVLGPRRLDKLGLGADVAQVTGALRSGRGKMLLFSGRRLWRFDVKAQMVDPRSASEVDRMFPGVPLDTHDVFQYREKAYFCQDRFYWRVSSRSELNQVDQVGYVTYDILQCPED
MMP-9 catalytic domain (part of the MMP-2/-9 catalytic domain cocktail), sequence (chain, as listed by the source): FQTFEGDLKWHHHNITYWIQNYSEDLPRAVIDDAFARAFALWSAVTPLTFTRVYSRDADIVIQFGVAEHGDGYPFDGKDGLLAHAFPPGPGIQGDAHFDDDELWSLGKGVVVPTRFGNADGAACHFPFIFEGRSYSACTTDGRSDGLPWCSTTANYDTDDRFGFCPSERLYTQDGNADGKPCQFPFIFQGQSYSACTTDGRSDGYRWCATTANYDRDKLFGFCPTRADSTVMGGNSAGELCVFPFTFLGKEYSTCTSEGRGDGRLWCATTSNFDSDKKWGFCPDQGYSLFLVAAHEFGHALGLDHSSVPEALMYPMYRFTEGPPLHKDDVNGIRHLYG
MMP-2 catalytic domain (part of the MMP-2/-9 catalytic domain cocktail), sequence (chain, as listed by the source): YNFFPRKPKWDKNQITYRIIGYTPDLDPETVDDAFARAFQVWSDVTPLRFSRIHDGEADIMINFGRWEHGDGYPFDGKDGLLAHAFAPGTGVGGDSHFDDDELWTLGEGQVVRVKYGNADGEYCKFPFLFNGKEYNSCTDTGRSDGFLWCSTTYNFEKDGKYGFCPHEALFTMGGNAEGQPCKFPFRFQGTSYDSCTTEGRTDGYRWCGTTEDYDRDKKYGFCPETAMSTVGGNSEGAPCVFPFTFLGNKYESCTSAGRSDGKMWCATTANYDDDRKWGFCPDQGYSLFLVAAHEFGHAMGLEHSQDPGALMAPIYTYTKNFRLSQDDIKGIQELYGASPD
MMP-8 (Calbiochem), sequence (chain, as listed by the source): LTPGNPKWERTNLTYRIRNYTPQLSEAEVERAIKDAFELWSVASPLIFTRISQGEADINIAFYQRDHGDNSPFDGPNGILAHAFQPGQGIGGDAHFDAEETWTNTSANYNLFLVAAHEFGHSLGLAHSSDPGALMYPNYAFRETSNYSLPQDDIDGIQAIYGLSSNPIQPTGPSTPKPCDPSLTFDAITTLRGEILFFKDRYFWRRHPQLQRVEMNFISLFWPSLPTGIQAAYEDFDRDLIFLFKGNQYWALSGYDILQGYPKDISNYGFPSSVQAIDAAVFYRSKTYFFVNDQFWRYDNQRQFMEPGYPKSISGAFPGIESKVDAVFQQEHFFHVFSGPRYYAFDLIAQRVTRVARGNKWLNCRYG

Row | Substance | fluorescent emission from the LTBP-1 substrate [1] | fluorescence emission (cleavage of the quenched fluorogenic substrate) [2]
1 | MMP-2 catalytic domain (part of the MMP-2/-9 catalytic domain cocktail) | Incubation with an MMP-2/-9 catalytic domain cocktail (10 ug/mL) caused no fluorescent emission from the LTBP-1 substrate. | 
2 | MMP-8 (Calbiochem) |  | Incubation with MMP-2/9, MMP-8, or ADAM-10 and 17 alone failed to cause fluorescence emission from the MT1-MMP substrate.
3 | MMP-9 (part of MMP-2/9, Chemicon) |  | Incubation with MMP-2/9, MMP-8, or ADAM-10 and 17 alone failed to cause fluorescence emission from the MT1-MMP substrate.
4 | MMP-9 catalytic domain (part of the MMP-2/-9 catalytic domain cocktail) | Incubation with an MMP-2/-9 catalytic domain cocktail (10 ug/mL) caused no fluorescent emission from the LTBP-1 substrate. | 
